Data reported in publication PMC2447227, “The Interaction Between Endopolygalacturonase From Fusarium Moniliforme and PGIP from Phaseolus Vulgaris Studied by Surface Plasmon Resonance and Mass Spectrometry” (Comparative and Functional Genomics, 2001).

Columns and labels:
[1] = target: T1, endopolygalacturonase from Fusarium moniliforme, native (glycosylated) enzyme expressed in Saccharomyces … (Fusarium moniliforme, UniProt Q07181 25-373, N-linked high-mannose type glycans (up to 14 Man residues in the chain at Asn65); four potential N-glycosylation sites; glycoforms of 43, 46 and 50 kDa); test: SPR; PGIP-2 immobilised by amine coupling on a CM5 chip (4000-5000 RU), BIACORE X; PG solutions in 25 mM ammonium acetate buffer pH 5.0 injected at 5 ul/min; buffer-treated reference flow-cell; bound deglycosylated enzyme eluted with NH4HCO3 pH 8 and analysed by MALDI-TOF MS; conditions: both partners purified
T1 construct: endopolygalacturonase (PG), Fusarium moniliforme; calculated mass of the polypeptide 36198 Da (36.2 kDa); also called FmPG; PG; source: expressed in Saccharomyces cerevisiae, purified
T1 sequence: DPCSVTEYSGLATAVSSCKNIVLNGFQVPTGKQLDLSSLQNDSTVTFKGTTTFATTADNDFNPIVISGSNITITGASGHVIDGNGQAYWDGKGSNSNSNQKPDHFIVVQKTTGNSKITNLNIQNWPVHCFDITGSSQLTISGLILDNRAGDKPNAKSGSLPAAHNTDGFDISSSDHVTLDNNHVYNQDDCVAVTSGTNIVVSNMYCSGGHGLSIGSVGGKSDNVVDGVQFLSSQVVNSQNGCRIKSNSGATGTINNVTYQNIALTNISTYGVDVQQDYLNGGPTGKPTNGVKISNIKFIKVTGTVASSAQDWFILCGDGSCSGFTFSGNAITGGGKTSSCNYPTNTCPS

[2] = target: T2, endopolygalacturonase from Fusarium moniliforme deglycosylated with endo-H (Fusarium moniliforme, UniProt Q07181 25-373, a single GlcNAc residue at each of the four N-glycosylation sites (observed mass 37110 Da against 36198 Da calculated for the polypeptide)); test: as above; conditions: both partners purified
T2 construct: endopolygalacturonase (PG), Fusarium moniliforme; the same polypeptide as m2, glycans trimmed by endo-H; calculated mass of the polypeptide 36198 Da; also called PG + EndoH; deglycosylated FmPG; source: expressed in Saccharomyces cerevisiae, purified, deglycosylated with endo-H
T2 sequence: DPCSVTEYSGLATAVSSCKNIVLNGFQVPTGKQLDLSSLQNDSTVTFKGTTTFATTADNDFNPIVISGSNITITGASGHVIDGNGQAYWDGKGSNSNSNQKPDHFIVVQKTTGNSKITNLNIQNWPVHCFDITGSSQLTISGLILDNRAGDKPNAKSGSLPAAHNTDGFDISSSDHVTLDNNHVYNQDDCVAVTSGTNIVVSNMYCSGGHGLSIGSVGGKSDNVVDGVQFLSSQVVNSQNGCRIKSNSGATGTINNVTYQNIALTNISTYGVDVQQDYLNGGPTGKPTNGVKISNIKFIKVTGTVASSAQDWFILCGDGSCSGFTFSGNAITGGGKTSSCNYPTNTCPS

B1: polygalacturonase-inhibiting protein PGIP-2 of Phaseolus vulgaris (natural protein, UniProt P58822 30-342, looked up)
chain: ELCNPQDKQALLQIKKDLGNPTTLSSWLPTTDCCNRTWLGVLCDTDTQTYRVNNLDLSGLNLPKPYPIPSSLANLPYLNFLYIGGINNLVGPIPPAIAKLTQLHYLYITHTNVSGAIPDFLSQIKTLVTLDFSYNALSGTLPPSISSLPNLVGITFDGNRISGAIPDSYGSFSKLFTSMTISRNRLTGKIPPTFANLNLAFVDLSRNMLEGDASVLFGSDKNTQKIHLAKNSLAFDLGKVGLSKNLNGLDLRNNRIYGTLPQGLTQLKFLHSLNVSFNNLCGEIPQGGNLQRFDVSAYANNKCLCGSPLPACT
notes: a leucine-rich repeat protein; also called bean PGIP-2; source: Nicotiana benthamiana plants infected with PVX, purified
binding result [1]: binds
binding result [2]: binds
